# Test results taken from publication PMC11446282.
# Changes are numbered by the printed parent chain.
# B1: ZDS1 R876: ZDS1, R876 to alanine (protein, UniProt P50111 1-915, looked up, variant R876A)
# Protein ZDS1: MSNRDNESMLRTTSSDKAIASQRDKRKSEVLIAAQSLDNEIRSVKNLKRLSIGSMDLLIDPELDIKFGGESSGRRSWSGTTSSSASMPSDTTTVNNTRYSDPTPLENLHGRGNSGIESSNKTKQGNYLGIKKGVHSPSRKLNANVLKKNLLWVPANQHPNVKPDNFLELVQDTLQNIQLSDNGEDNDGNSNENNDIEDNGEDKESQSYENKENNTINLNRGLSRHGNASLIRRPSTLRRSYTEFDDNEDDDNKGDSASETVNKVEERISKIKERPVSLRDITEELTKISNSAGLTDNDAITLARTLSMAGSYSDKKDQPQPEGHYDEGDIGFSTSQANTLDDGEFASNMPINNTMTWPERSSLRRSRFNTYRIRSQEQEKEVEQSVDEMKNDDEERLKLTKNTIKVEIDPHKSPFRQQDEDSENMSSPGSIGDFQDIYNHYRQSSGEWEQEMGIEKEAEEVPVKVRNDTVEQDLELREGTTDMVKPSATDDNKETKRHRRRNGWTWLNNKMSREDDNEENQGDDENEENVDSQRMELDNSKKHYISLFNGGEKTEVSNKEEMNNSSTSTATSQTRQKIEKTFANLFRRKPHHKHDASSSPSSSPSSSPSIPNNDAVHVRVRKSKKLGNKSGREPVEPIVLRNRPRPHRHHHSRHGSQKISVKTLKDSQPQQQIPLQPQLEGAIEIEKKEESDSESLPQLQPAVSVSSTKSNSRDREEEEAKKKNKKRSNTTEISNQQHSKHVQKENTDEQKAQLQAPAQEQVQTSVPVQASAPVQNSAPVQTSAPVEASAQTQAPAAPPLKHTSILPPRKLTFADVKKPDKPNSPVQFTDSAFGFPLPLLTVSTVIMFDHRLPINVERAIYRLSHLKLSNSKRGLAEQVLLSNFMYAYLNLVNHTLYMEQVAHDKEQQQQQQQQP
# B2: ZDS1 E877: ZDS1, E877 to alanine (protein, UniProt P50111 1-915, looked up, variant E877A)
# Protein ZDS1: B1 Protein ZDS1 with A876R, E877A
# B3: ZDS1 Q878: ZDS1, Q878 to alanine (protein, UniProt P50111 1-915, looked up, variant Q878A)
# Protein ZDS1: B1 Protein ZDS1 with A876R, Q878A
# B4: ZDS1 V879: ZDS1, V879 to alanine (protein, UniProt P50111 1-915, looked up, variant V879A)
# Protein ZDS1: B1 Protein ZDS1 with A876R, V879A
# B5: ZDS1 L880: ZDS1, L880 to alanine (protein, UniProt P50111 1-915, looked up, variant L880A)
# Protein ZDS1: B1 Protein ZDS1 with A876R, L880A
# B6: ZDS1 L881: ZDS1, L881 to alanine (protein, UniProt P50111 1-915, looked up, variant L881A)
# Protein ZDS1: B1 Protein ZDS1 with A876R, L881A
# B7: ZDS1 S882: ZDS1, S882 to alanine (protein, UniProt P50111 1-915, looked up, variant S882A)
# Protein ZDS1: B1 Protein ZDS1 with A876R, S882A
# B8: ZDS1 R858: ZDS1, R858 to alanine (protein, UniProt P50111 1-915, looked up, variant R858A)
# Protein ZDS1: B1 Protein ZDS1 with R858A, A876R
# B9: ZDS1 I860: ZDS1, I860 to alanine (protein, UniProt P50111 1-915, looked up, variant I860A)
# Protein ZDS1: B1 Protein ZDS1 with I860A, A876R
# B10: ZDS1 Y861: ZDS1, Y861 to alanine (protein, UniProt P50111 1-915, looked up, variant Y861A)
# Protein ZDS1: B1 Protein ZDS1 with Y861A, A876R
# B11: ZDS1 R862: ZDS1, R862 to alanine (protein, UniProt P50111 1-915, looked up, variant R862A)
# Protein ZDS1: B1 Protein ZDS1 with R862A, A876R
# B12: ZDS1 L863: ZDS1, L863 to alanine (protein, UniProt P50111 1-915, looked up, variant L863A)
# Protein ZDS1: B1 Protein ZDS1 with L863A, A876R
# B13: 2ABA_HUMAN (protein, UniProt P63151 2-447, looked up)
# Serine/threonine-protein …: AGAGGGNDIQWCFSQVKGAVDDDVAEADIISTVEFNHSGELLATGDKGGRVVIFQQEQENKIQSHSRGEYNVYSTFQSHEPEFDYLKSLEIEEKINKIRWLPQKNAAQFLLSTNDKTIKLWKISERDKRPEGYNLKEEDGRYRDPTTVTTLRVPVFRPMDLMVEASPRRIFANAHTYHINSISINSDYETYLSADDLRINLWHLEITDRSFNIVDIKPANMEELTEVITAAEFHPNSCNTFVYSSSKGTIRLCDMRASALCDRHSKLFEEPEDPSNRSFFSEIISSISDVKFSHSGRYMMTRDYLSVKIWDLNMENRPVETYQVHEYLRSKLCSLYENDCIFDKFECCWNGSDSVVMTGSYNNFFRMFDRNTKRDITLEASRENNKPRTVLKPRKVCASGKRKKDEISVDSLDFNKKILHTAWHPKENIIAVATTNNLYIFQDKVN
# B14: ENSA_HUMAN (protein, UniProt O43768 2-121, looked up)
# Alpha-endosulfine: SQKQEEENPAEETGEEKQDTQEKEGILPERAEEAKLKAKYPSLGQKPGGSDFLMKRLQKGQKYFDSGDYNMAKAKMKNKQLPSAGPDKNLVTGDHIPTPQDLPQRKSSLVTSKLAGGQVE
# B15: ARP19_HUMAN (protein, UniProt P56211 2-112, looked up)
# cAMP-regulated phosphoprotein …: SAEVPEAASAEEQKEMEDKVTSPEKAEEAKLKARYPHLGQKPGGSDFLRKRLQKGQKYFDSGDYNMAKAKMKNKQLPTAAPDKTEVTGDHIPTPQDLPQRKPSLVASKLAG
# B16: FOXC1_HUMAN (protein, UniProt Q12948 1-553, looked up)
# Forkhead box protein C1: MQARYSVSSPNSLGVVPYLGGEQSYYRAAAAAAGGGYTAMPAPMSVYSHPAHAEQYPGGMARAYGPYTPQPQPKDMVKPPYSYIALITMAIQNAPDKKITLNGIYQFIMDRFPFYRDNKQGWQNSIRHNLSLNECFVKVPRDDKKPGKGSYWTLDPDSYNMFENGSFLRRRRRFKKKDAVKDKEEKDRLHLKEPPPPGRQPPPAPPEQADGNAPGPQPPPVRIQDIKTENGTCPSPPQPLSPAAALGSGSAAAVPKIESPDSSSSSLSSGSSPPGSLPSARPLSLDGADSAPPPPAPSAPPPHHSQGFSVDNIMTSLRGSPQSAAAELSSGLLASAAASSRAGIAPPLALGAYSPGQSSLYSSPCSQTSSAGSSGGGGGGAGAAGGAGGAGTYHCNLQAMSLYAAGERGGHLQGAPGGAGGSAVDDPLPDYSLPPVTSSSSSSLSHGGGGGGGGGGQEAGHHPAAHQGRLTSWYLNQAGGDLGHLASAAAAAAAAGYPGQQQNFHSVREMFESQRIGLNNSPVNGNSSCQMAFPSSQSLYRTSGAFVYDCSKF
# B17: IER5_HUMAN (protein, UniProt Q5VY09 1-327, looked up)
# Immediate early response gene …: MEFKLEAHRIVSISLGKIYNSRVQRGGIKLHKNLLVSLVLRSARQVYLSDPCPGLYLAGPAGTPAPPPQQQPGEPAAGPPAGWGEPPPPAARASWPETEPQPERSSVSDAPRVGDEVPVATVTGVGDVFQGGEADATEAAWSRVEGPRQAAAREAEGTAGGWGVFPEVSRAARRPCGCPLGGEDPPGTPAATPRAACCCAPQPAEDEPPAPPAVCPRKRCAAGVGGGPAGCPAPGSTPLKKPRRNLEQPPSGGEDDDAEEMETGNVANLISIFGSSFSGLLRKSPGGGREEEEGEESGPEAAEPGQICCDKPVLRDMNPWSTAIVAF
# B18: AIFM2_HUMAN (protein, UniProt Q9BRQ8 2-373, looked up)
# Ferroptosis suppressor …: GSQVSVESGALHVVIVGGGFGGIAAASQLQALNVPFMLVDMKDSFHHNVAALRASVETGFAKKTFISYSVTFKDNFRQGLVVGIDLKNQMVLLQGGEALPFSHLILATGSTGPFPGKFNEVSSQQAAIQAYEDMVRQVQRSRFIVVVGGGSAGVEMAAEIKTEYPEKEVTLIHSQVALADKELLPSVRQEVKEILLRKGVQLLLSERVSNLEELPLNEYREYIKVQTDKGTEVATNLVILCTGIKINSSAYRKAFESRLASSGALRVNEHLQVEGHSNVYAIGDCADVRTPKMAYLAGLHANIAVANIVNSVKQRPLQAYKPGALTFLLSMGRNDGVGQISGFYVGRLMVRLTKSRDLFVSTSWKTMRQSPP
# Tested on: PP2A-B55α
# Test: Single alanine mutational scan, YFP-tagged interactors immunoprecipitated from HeLa cells, Western blot
# Type: binding, human
# Details: single alanine mutant of YFP-tagged ZDS1
row,Molecule,Experimental % binding [%]
1,B1,0
2,B2,0
3,B3,13
4,B4,2
5,B5,0
6,B6,11
7,B7,98
8,B8,75
9,B9,60
10,B10,42
11,B11,32
12,B12,110

# Tested on: B55α interactors
# Test: MS analysis of B55α WT, V228A, I284A, S287A and D340A immunopurifications
# Type: binding, human
# Details: log2 ratio of interactor abundance, B55α D340A vs WT immunopurification, 4 replicates each, normalised to bait B55α
# Description: Standard cloning techniques were used throughout. Point mutations were introduced by whole plasmid polymerase chain reaction (PCR). All constructs were fully sequenced. Synthetic DNA was purchased from GeneArt, Life Technologies and cloned into pcDNA5/FRT/TO (Invitrogen) expression vector containing YFP, resulting in the indicated YFP fusion proteins. These constructs were transiently transfected into HeLa cells 24 hours before harvesting cells. Cells were lysed in lysis buffer [50 mM tris-HCl (pH 7.5), 50 mM NaCl, 1 mM EDTA, 1 mM […], and 0.1% NP-40]. Complexes were immunoprecipitated at 4°C in lysis buffer with green fluorescent protein (GFP)–Trap (ChromoTek) and washed in lysis buffer. Precipitated protein complexes were washed three times in lysis buffer, eluted in 2× SDS sample buffer, and subjected to Western blotting or MS as indicated.
# Pull-downs were analyzed on a Q-Exactive Plus quadrupole or Fusion Orbitrap Lumos mass spectrometer (Thermo Fisher Scientific) equipped with Easy-nLC 1000 or […] (Thermo Fisher Scientific) and nanospray source (Thermo Fisher Scientific).
# Static modifications included carbamidomethylcysteine, and variable modifications included oxidized methionine and STY phosphorylation. Searches were filtered using orthogonal measures including mass measurement accuracy (±3 parts per million), Xcorr for charges from +2 to +4, and dCn targeting a <1% false discovery rate at the peptide level. Quantification of LC-MS/MS spectra was performed using MassChroQ ([57]) and the iBAQ method ([58]). All data were analyzed using R 4.3.0. Missing values were imputed from a normal distribution. […] In each dataset, the abundance of the protein of interest was normalized to be equal across all samples. Statistical analyses were done using a two-tailed Student’s t test.
row,Molecule,log2_ratio_D340_WT
1,B13,0.00
2,B14,-2.08
3,B15,-2.01
4,B16,-5.21
5,B17,-7.50
6,B18,-0.14

# Same assay, conditions: log2 ratio of interactor abundance, B55α I284A vs WT immunopurification, 4 replicates each, normalised to bait B55α
row,Molecule,log2_ratio I284_WT
1,B13,0.00
2,B14,-0.42
3,B15,-0.06
4,B16,-3.45
5,B17,0.57
6,B18,-0.15

# Same assay, conditions: log2 ratio of interactor abundance, B55α S287A vs WT immunopurification, 4 replicates each, normalised to bait B55α
row,Molecule,log2_ratio S287_WT
1,B13,0.00
2,B14,0.42
3,B15,0.27
4,B16,0.53
5,B17,-6.37
6,B18,0.33

# Same assay, conditions: log2 ratio of interactor abundance, B55α V228A vs WT immunopurification, 4 replicates each, normalised to bait B55α
row,Molecule,log2_ratio V228_WT
1,B13,0.00
2,B14,-1.31
3,B15,-0.89
4,B16,-2.65
5,B17,-5.72
6,B18,-0.53
